Assay in all cases: cell-based or functional assay
The target of assay [1] is HIV-1 Env of pseudovirus MGRM-AG-012 (clade CRF_AG) (HIV-1).
For assay [2], the target named is HIV-1 Env of isolate MGRM-D-024 (clade D pseudovirus) (HIV-1).
The target in assay [3] is HIV-1 Env of pseudovirus MGRM-F1-017 (HIV-1).
Assay [4] deals with HIV-1 Env of isolate MGRM-Chronic-B-003, clade B, on pseudovirus (HIV-1).
The target in assay [5] is HIV-1 92UG005 envelope glycoprotein (Env) on pseudovirus (HIV-1).
The target of assay [6] is HIV-1 Env of isolate MGRM-D-019 (clade D pseudovirus) (HIV-1).
Assay [7] deals with HIV-1 Env of pseudovirus MGRM-F1-008 (HIV-1).
In assay [8] the target is HIV-1 Env of pseudovirus MGRM-G-011 (HIV-1, clade G isolate MGRM-G-011).
Assay [9] deals with HIV-1 Env of pseudovirus MGRM-Chronic-B-018 (HIV-1).
Assay [10] concerns the target HIV-1 envelope glycoprotein (Env) of isolate 92RW026, clade A (HIV-1).
In assay [11] the target is HIV-1 envelope glycoprotein (Env) of isolate MGRM-A-003, clade A (HIV-1).
Assay [12] addresses HIV-1 envelope glycoprotein (Env) of isolate MGRM-A-005, clade A (HIV-1).
The target of assay [13] is HIV-1 Env of isolate 93IN905 (HIV-1).
Assay [14] addresses HIV-1 Env of pseudovirus MGRM-G-014 (HIV-1, clade G isolate MGRM-G-014).
The target in assay [15] is HIV-1 Env of pseudovirus MGRM-G-015 (HIV-1, clade G isolate MGRM-G-015).

Bounds are passed on as bounds.

On to 1495_C14 (PGC14) (antibody), for which the IC50 (commonly the concentration that gives 50% inhibition) was over 50 µg/mL in assay [1] and 19 µg/mL in assay [13]. For the same substance, the IC50 (µg/ml), pseudovirus neutralization in assay [2], in [3], in assay [4], in assay [6], in assay [7] and in [8] was over 50 µg/mL throughout. Also, the IC50 (µg/ml), pseudovirus neutralization in [9], in assay [10], in assay [11], in assay [12], in assay [14] and in assay [15] was over 50 µg/mL in each case. For the same substance, in [5], the IC50, pseudovirus neutralization was over 50 µg/mL.

Source of the values: US20250320281A1.
